Measurements reported in patent US9540424B2, “Serum albumin binding molecules” (BRISTOL-MYERS SQUIBB COMPANY, priority 2010, dated 2017).
“And” between values parts separate entries of the source, which are not always exact repeats. Identical values can stand only once.

Legend:
[1] = system: parental HEK cells, which do not express β-klotho; assay: pERK 1/2 specificity assay in parental HEK cells; assay type: cell-based, human
Description: FGF1 was used as a positive control in those experiments.

[2] = system: HEK cells stably expressing human β-klotho; assay: HEK β-Klotho pERK 1/2 assay; assay type: cell-based; details: same dilutions as in parental HEK cells
Procedure: FGF21 induces ERK phosphorylation in the presence of β-klotho. Accordingly, the present HEK-β-klotho assay system was constructed to examine the functional activity of the FGF21-SABA fusions in vitro. Specifically, in vitro activity, potency (EC50) and efficacy (as a percentage of maximal activity observed from an FGF21 molecule that is not fused to a SABA), were determined for the SABA1-FGF21v1 (SEQ ID NO: 132) fusion protein, as measured in the HEK β-Klotho expressing stable cell pERK 1/2 assay using the non-fused His-tagged FGF21 (“FGFv1”; SEQ ID NO: 125) as a comparator.
A HEK cell line stably expressing human β-klotho was constructed. The human β-klotho construct encoded the full length protein under the control of a CMV promoter with a C-terminal FLAG tag. HEK 293 cells were transfected with the linearized cDNA using Lipofectamine 2000 (Invitrogen catalog #11668027) following the manufactures protocol using standard techniques. Positive clones were isolated after 14 days of selection in 600 ug/ml (Invitrogen catalog #10131) of geneticin in Dulbecco's Modified Eagle Medium with high glucose containing L-Glutamine, Hepes (Invitrogen catalog #12430054) and 10% FBS (HyClone catalog # SH30071). Positive stable clones were further characterized by Western Blot analysis and p-ERK activation by AlphaScreen (Perkin Elmer catalog # TGRES50K) analysis.
HEK cells stably expressing human β-klotho were plated at 20,000 cells/well in 96 well tissue culture plates in DMEM high glucose media (Gibco) containing 10% (v/v) FBS (Hyclone) and 600 μg/ml G418 (Gibco). The following day, the media was removed and replaced with DMEM high glucose media without serum and the cells were incubated overnight. The morning of the third day the serum free media was removed and the cells were incubated for a total of seven minutes with dilutions of the proteins made in PBS containing 3% (w/v) fatty acid free human serum albumin. Dilutions were tested in triplicate, one well on each of three plates. At the end of the seven minute incubation, the protein dilutions were removed and 100 μl of 1x AlphaScreen lysis buffer (Perkin-Elmer) was added per well and allowed to incubate with shaking for approximately 10-15 minutes. The plates containing the cellular lysates were frozen at −80° C. for at least 30 minutes or until ready to assay. Four μl from each well of thawed cell lysate was analyzed for pERK 1/2 using the Surefire AlphaScreen pERK 1/2 kit (Perkin Elmer) using 384 well white Proxiplates (Perkin Elmer) following the manufacturer's directions. Plates were incubated at room temperature for two hours in the dark and then read on an Envision 2103 Multiplate reader (Perkin Elmer). Data were analyzed using Graph Pad Prism software using a non-linear regression analysis.

RhSA = RhSA (Macaca mulatta, UniProt Q28522); assay: Biacore kinetics of SABAs on immobilized serum albumin: RhSA; assay type: binding, rhesus
Sequence of RhSA (Q28522 17-600): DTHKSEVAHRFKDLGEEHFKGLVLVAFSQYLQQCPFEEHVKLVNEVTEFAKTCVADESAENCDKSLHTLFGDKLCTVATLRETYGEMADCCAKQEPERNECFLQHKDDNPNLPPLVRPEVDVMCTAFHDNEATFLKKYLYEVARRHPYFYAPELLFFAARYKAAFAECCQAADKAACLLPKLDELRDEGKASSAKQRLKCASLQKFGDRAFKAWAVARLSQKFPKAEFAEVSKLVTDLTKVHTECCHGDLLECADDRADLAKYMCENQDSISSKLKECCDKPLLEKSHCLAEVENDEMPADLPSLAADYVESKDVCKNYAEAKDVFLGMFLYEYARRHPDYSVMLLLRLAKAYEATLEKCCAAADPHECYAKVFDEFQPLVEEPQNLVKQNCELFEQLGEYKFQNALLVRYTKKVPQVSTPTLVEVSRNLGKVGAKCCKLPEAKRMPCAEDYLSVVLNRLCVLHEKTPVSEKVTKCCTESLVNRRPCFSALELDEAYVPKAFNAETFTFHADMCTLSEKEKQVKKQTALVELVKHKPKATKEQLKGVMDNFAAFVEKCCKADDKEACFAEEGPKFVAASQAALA
Procedure: (§4) In addition, binding to albumin was carried out under various pH conditions ranging from pH 5.5 to pH 7.4.

[3] = Half-life of HSA and of SABA1-4 with or without HSA in mice (ELISA, WinNonlin); assay type: in vivo, Ncr nude female mice; details: for half-life in mice plasma: injected without HSA; for increase in half life when co-injected with HSA: with HSA vs without HSA, mice
Procedure: The pharmacokinetic parameters of each Adnectin™ were determined using non-compartmental modeling with WinNonlin software.

MuSA [4] = target: T1, MuSA (Mus musculus, UniProt P07724); assay: Biacore kinetics of SABAs on immobilized serum albumin: MuSA; assay type: binding
T1 sequence (P07724 25-608): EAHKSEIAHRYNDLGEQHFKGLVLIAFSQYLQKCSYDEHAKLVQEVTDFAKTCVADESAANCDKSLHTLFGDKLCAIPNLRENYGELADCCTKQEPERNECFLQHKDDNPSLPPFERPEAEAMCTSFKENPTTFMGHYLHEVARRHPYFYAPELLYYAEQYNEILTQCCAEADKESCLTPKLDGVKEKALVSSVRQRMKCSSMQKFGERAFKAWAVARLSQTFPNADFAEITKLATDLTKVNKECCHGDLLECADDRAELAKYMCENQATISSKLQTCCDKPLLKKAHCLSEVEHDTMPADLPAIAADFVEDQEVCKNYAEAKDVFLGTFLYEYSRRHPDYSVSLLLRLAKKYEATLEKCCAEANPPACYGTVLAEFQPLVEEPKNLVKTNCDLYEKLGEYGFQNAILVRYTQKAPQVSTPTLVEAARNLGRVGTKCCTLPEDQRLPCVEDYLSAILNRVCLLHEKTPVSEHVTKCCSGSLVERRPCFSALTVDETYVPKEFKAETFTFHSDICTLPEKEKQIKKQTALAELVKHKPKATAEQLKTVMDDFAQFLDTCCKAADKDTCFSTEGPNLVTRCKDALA

[5] = Differential Scanning calorimetry (DSC) thermostability of midscaled SABAs; assay type: physicochemical; details: 1 mg/ml solution, 5° C. to 95° C. at 1 degree per minute
Procedure: Differential Scanning calorimetry (DSC) analyses of the midscaled SABAs were performed to determine their respective Tm's. A 1 mg/ml solution was scanned in a N-DSC II calorimeter (calorimetry Sciences Corp) by ramping the temperature from 5° C. to 95° C. at a rate of 1 degree per minute under 3 atm pressure. The data was analyzed vs. a control run of the appropriate buffer using a best fit using Orgin Software (OrginLab Corp).

[6] = Analytical size exclusion chromatography (SEC) of SABAs; assay type: physicochemical; details: midscaled material
Procedure: Size exclusion chromatography (SEC) was performed on the SABAs resulting from the HTPP. SEC of HTPP derived material was performed using a Superdex 200 5/150 or Superdex 75 5/150 column (GE Healthcare) on an Agilent 1100 or 1200 HPLC system with UV detection at A214 nm and A280 nm and with fluorescence detection (excitation=280 nm, emission=350 nm). A buffer of 100 mM sodium sulfate, 100 mM sodium phosphate, 150 mM sodium chloride, pH 6.8 at appropriate flow rate of the SEC column employed. Gel filtration standards (Bio-Rad Laboratories, Hercules, Calif.) were used for molecular weight calibration.
Midscale expression and purification yielded highly pure and active Adnectins™ that were expressed in a soluble form and purified from the soluble fraction of the bacterial cytosol.
Standard size exclusion chromatography (SEC) was performed on the candidate SABAs resulting from the midscale process. SEC of midscaled material was performed using a Superdex 200 10/30 or on a Superdex 75 10/30 column (GE Healthcare) on an Agilent 1100 or 1200 HPLC system with UV detection at A214 nm and A280 nm and with fluorescence detection (excitation=280 nm, emission=350 nm). A buffer of 100 mM sodium sulfate, 100 mM sodium phosphate, 150 mM sodium chloride, pH 6.8 at appropriate flow rate of the SEC column employed. Gel filtration standards (Bio-Rad Laboratories, Hercules, Calif.) were used for molecular weight calibration.

HSA [7] = target: T2, HSA (Homo sapiens, UniProt P02768)
Procedure: as §4

[8] = Single dose pharmacokinetics of SABA1.1 and SABA5.1 in cynomolgus monkeys; assay type: in vivo; details: 1 mpk IV
Procedure: The pharmacokinetics were evaluated using a quantitative ELISA-based assay that was developed to detect the Adnectin™ in plasma samples.

MuSA [9] = target: T1, MuSA; assay: SPR (Biacore T100) kinetics of FGF21-SABA1 fusions: MuSA; assay type: binding, murine; design: purchased Sigma A3559; details: 37° C., up to 1 uM analyte
Procedure: (§1) The binding competency and thermodynamic characterization of FGF21-SABA fusion variants to human serum albumin were performed using Isothermal Titration calorimetry on a Microcal VP-ITC instrument (Microcal Inc. Amherst Mass., USA). […] The detailed experimental conditions are described below.
(§2) For the calorimetry assay, the FGF21-SABA variant SABA1-FGF21v1 (SEQ ID NO: 132) was used. […] For the SPR studies, SABA1-FGF21v1 and SABA1-FGF21v3 (SEQ ID NO: 134) were examined.
(§3) Serum albumins were dissolved in PBS buffer (10 mM sodium phosphate, 130 mM sodium chloride, pH 7.1) to a concentration of 10 mg/ml, and subsequently diluted to 8-10 μg/ml in 10 mM sodium acetate pH 5.0 for immobilization. Serum albumins were immobilized on a Series S CMS sensor chip using standard ethyl(dimethylaminopropyl) carbodiimide (EDC)/N-hydroxysuccinimide (NHS) chemistry in HBS-EP+ running buffer at 25° C., following general manufacturer guidelines. Flow cell 1 was activated with EDC/NHS and blocked with ethanolamine. […] Kinetic experiments were performed in PBS buffer containing 0.05% tween-20 (running buffer) at either 25° C. or 37° C. […] These samples were injected across flow cells 1-4 for 300 s, with a 420 s dissociation time, at flow rates of 30 μl/min or 60 μl/min to check for mass transfer limitation. All surfaces were regenerated with 2 pulses of 10 mM glycine pH 2.0 at 30 μl/min for 30 s. Raw sensograms were “double-referenced” by subtracting flow cell 1 data from flow cell 2, 3 or 4 data, and then subtracting a separate buffer cycle from each sensogram. The double-referenced sensogram data was fitted to a 1:1 Langmuir model using Biacore T100 Evaluation software version 2.0.2 to determine the association rate constant (ka), the dissociation rate constant (kd), and the equilibrium dissociation constant (KD).

CySA = target: T3, CySA (Macaca fascicularis, UniProt A2V9Z4); assay: SPR (Biacore T100) kinetics of FGF21-SABA1 fusions: CySA; assay type: binding, cynomolgous monkey; details: 37° C.
T3 construct: purchased Equitech-Bio CMSA
T3 sequence (A2V9Z4 25-608): as the sequence (Q28522 17-600) above
Procedure: as §1, §2, §3

[10] = Pharmacokinetics of His-tagged FGF21 and SABA-FGF21 fusions in monkeys; assay type: in vivo, cynomolgus monkeys; details: monkeys
Procedure: Various in vivo studies were conducted in mice and monkeys to characterize the pharmacokinetics of His-tagged FGF21 and SABA1-FGF21v1. An ELISA-based ligand binding assay was used to measure the His-tagged FGF21 and SABA1-FGF21v1 in all mouse and monkey plasma samples.
Following subcutaneous administration, His-tagged FGF21 was well absorbed.
Following subcutaneous administration, SABA1-FGF21v1 was well absorbed.

HSA [11] = target: T2, HSA; assay: SPR (Biacore T100) kinetics of FGF21-SABA1 fusions: HSA; assay type: binding; details: 37° C.
Procedure: as §1, §2, §3

[12] = co-injected with HSA (3-4 molar excess), tail vein
[13] = intravenous, His-tagged FGF21 0.5 mg/kg, SABA1-FGF21v1 0.08 mg/kg

FGF1: positive control in the pERK specificity assays [reference compound]
stimulation of pERK 1/2 levels in parental HEK cells [1]: did | activity in HEK β-klotho stable cells (specificity experiment) [2]: showed activity

B1: SABA3.1: His-tagged SABA3 sequence (protein)
chain: MGVSDVPRDLEVVAATPTSLLISWSNDGPGLSYYRITYGETGGNSPVQEFTVPSSQTTATISGLKPGVDYTITVYAVSYYTKKAYSAGPISINYRTEIDKPSQHHHHHH
modifications: His6 tag
cross reaction with RhSA (RhSA): cross reacted | PK (T½) Mice ([3]; co-injected with HSA): 0.533 h | PK (T½) Mice [3, 12]: 0.53 h | half-life in mice plasma [3]: 0.28 h | Comments: T½ in mice in words ([3]; mouse, in vivo): Poor T½ observed in mice | increase in half life when co-injected with HSA [3]: ~2 fold | cross reaction with MuSA (MuSA [4]): did not cross react | DSC (Tm) [5]: 65.2 °C | SEC Dimer (%) [6]: BLD | SEC Monomer (%) [6]: 99%

B2: SABA5.1: His-tagged SABA5 sequence (protein)
chain: MGVSDVPRDLEVVAATPTSLLISWEDDSYYSRYYRITYGETGGNSPVQEFTVPSDLYTATISGLKPGVDYTITVYAVTYDVTDLIMHEPISINYRTEIDKPSQHHHHHH
modifications: His6 tag
Comments: binding affinity for RhSA (RhSA): Poor binding affinity for RhSA. | cross reaction with RhSA (RhSA): cross reacted | PK (T½) Mice [3, 12]: 4.6 h | Comments: decrease in KD observed at pH <6.0 (HSA [7]; pH <6.0): >2-fold decrease in KD observed at | cross reaction with MuSA (MuSA [4]): did not cross react | DSC (Tm) [5]: 70.1 °C | SEC Dimer (%) [6]: 12% | SEC Monomer (%) [6]: 88% | AUCall ([8]; Mean, N 2): 246.882 µg·h/mL | Cl_obs ([8]; Mean, N 2): 4.089 mL/h/kg | Cmax ([8]; Mean, N 2): 17358 ng/mL | HL_Lambda_z ([8]; Mean, N 2): 12.186 h | Vz_obs ([8]; Mean, N 2): 0.072507 L/kg

B3: SABA1.1: core SABA1 with N-terminal MGVSDVPRDLE, C-terminal EIDKPSQ and His6 tag; SEQ ID NO: 89 (protein)
chain: MGVSDVPRDLEVVAATPTSLLISWHSYYEQNSYYRITYGETGGNSPVQEFTVPYSQTTATISGLKPGVDYTITVYAVYGSKYYYPISINYRTEIDKPSQHHHHHH
cross reaction with RhSA (RhSA): cross reacted | PK (T½) Mice [3, 12]: 5.6 h | half-life in mice plasma [3]: 0.56 h | increase in half life when co-injected with HSA [3]: ~10 fold | Resistant to pH 7.4→5.5? (HSA [7]; binding to HSA from pH 7.4 down to pH 5.5, symbols not defined): fits biochemical criteria for pH resistance and affinity/kinetics down to pH 5.5 | cross reaction with MuSA (MuSA [4]): did not cross react | DSC (Tm) [5]: 63.9 °C | SEC Dimer (%) [6]: 7.7% | SEC Monomer (%) [6]: 92.3% | AUCall ([8]; individual monkeys #1 and #2): 673.7 µg·h/mL and 625.1 µg·h/mL | Cl_obs ([8]; individual monkeys #1 and #2): 1.45 mL/h/kg and 1.60 mL/h/kg | Cmax ([8]; individual monkeys #1 and #2): 9030 ng/mL and 7240 ng/mL | Vz_obs ([8]; individual monkeys #1 and #2): 0.2008 L/kg and 0.3152 L/kg | t½ ([8]; individual monkeys #1 and #2): 95.8 h and 136.6 h

B4: SABA1-FGF21v3: SABA1-FGF21 fusion, SEQ ID NO: 134; 299 aa; DNA SEQ ID NO: 177 (protein)
chain: MGVSDVPRDLEVVAATPTSLLISWHSYYEQNSYYRITYGETGGNSPVQEFTVPYSQTTATISGLKPGVDYTITVYAVYGSKYYYPISINYRTEIDKPSQHHHHHHGSGSGSGSGSGSGSPIPDSSPLLQFGGQVRQRYLYTDDAQQTEAHLEIREDGTVGGAADQSPESLLQLKALKPGVIQILGVKTSRFLCQRPDGALYGSLHFDPEACSFRELLLEDGYNVYQSEAHGLPLHLPGNKSPHRDPAPRGPARFLPLPGLPPALPEPPGILAPQPPDVGSSDPLSMVGPSQGRSPSYAS
binding to MuSA (MuSA [9]; flow rate 30 μl/min): no binding observed up | binding to MuSA (MuSA [9]; flow rate 60 μl/min): no binding observed up | ka (CySA; flow rate 30 μl/min): 5310 M⁻¹ s⁻¹ | kd (CySA; flow rate 30 μl/min): 0.0117 s⁻¹ | ka (CySA; flow rate 60 μl/min): 4380 M⁻¹ s⁻¹ | kd (CySA; flow rate 60 μl/min): 0.0136 s⁻¹ | increase of t1/2 compared to His-tagged FGF21 [10]: ~27 fold | CL (total body plasma clearance, CLTp) [10, 13]: 2.4 mL/h/kg | T½ (terminal half-life) [10, 13]: 52.7 h | Vdss (steady-state volume of distribution, Vss) [10, 13]: 0.11 L/kg | ka (HSA [11]; flow rate 30 μl/min): 6160 M⁻¹ s⁻¹ | kd (HSA [11]; flow rate 30 μl/min): 0.00103 s⁻¹ | ka (HSA [11]; flow rate 60 μl/min): 5870 M⁻¹ s⁻¹ | kd (HSA [11]; flow rate 60 μl/min): 0.00107 s⁻¹
